Target: Ikoma lyssavirus glycoprotein ectodomain (IKOV-G-ecto) (Ikoma lyssavirus (IKOV))
Assay: crystal structure

Ikoma lyssavirus glycoprotein ectodomain (IKOV-G-ecto) (domain or fragment)
stoichiometry N: 3

Reference: PMC11864512
